Laboratory results as given in patent US20150010589A1 (published 2015).

B2: recombinant Aegyptin (mature protein with C-terminal 6xHis tag, expressed in 293-F cells) (other)
chain: RPMPEDEEPVAEGGDDDASGESEGEEETTDDAGGDGGEEENEGEEHAGDKDAGGEDTGKEENTGHDDAGEEDAGEEDAGEEDAGEEDAGEEDAEKEEGEKEDAGDDAGSDDGEEDSTGGDEGEDNAEDSKGSEKNDPADTYRQVVALLDKDTKVDHIQSEYLRSALNNDLQSEVRVPVVEAIGRIGDYSKIQGCFKSMGKDVKKVISEEEKKFKSCMSKKKSEYQCSEDSFAAAKSKLSPITSKIKSCVSSKGRHHHHHH

How the values were obtained:
[1] = target: T1, soluble collagen type I (pepsin-digested, non-fibrillar, triple helical; BD Biosciences) (human, UniProt P02452 179-1192; P08123 91-1104); assay: SPR, C-terminus-2 (5-250 nM) over immobilized soluble collagen type I, two-state binding model
T1 construct: domain: pepsin-digested, soluble non-fibrillar (tertiary structure, triple helical); also called collagen I; Coll-I

[2] = target: T1, soluble collagen type I …; assay: SPR, Aegyptin over immobilized soluble collagen type I, two-state model
[3] = target: T2, heat-denatured soluble collagen type I (90 min at 98° C.) (human, UniProt P02452 179-1192; P08123 91-1104); assay: SPR, Aegyptin over immobilized heat-denatured collagen I, two-state model
T2 construct: domain: pepsin-digested, soluble non-fibrillar collagen, heat-denatured; Same material as soluble collagen I, denatured in a thermocycler before immobilization; also called Collagen denatured; heat-denatured collagen

[4] = target: T1, soluble collagen type I …; assay: SPR, Aegyptin over immobilized soluble collagen type I, two-state model; Kd1
[5] = target: T2, heat-denatured soluble collagen type I …; assay: SPR, Aegyptin over immobilized heat-denatured collagen I, two-state model; Ka1
[6] = target: T2, heat-denatured soluble collagen type I …; assay: SPR, Aegyptin over immobilized heat-denatured collagen I, two-state model; Kd1
[7] = target: T1, soluble collagen type I …; assay: SPR kinetics at 15-40 C on immobilized collagen type I, van't Hoff analysis; value (±SE)
[8] = target: T3, RGQOGVMGFO peptide GPC-(GPP)5-GPOGPSGPRGQOGVMGFOGPKGNDGAO-(GPP)5-GPC-NH2, cross-linked (O residues as printed (hydroxyproline); C-terminal amide (NH2); cross-linked (4° C. for 48 hours in PBS, or SPDP)); assay: ELISA, inhibition of vWf (3 nM) binding to the coated RGQOGVMGFO peptide by Aegyptin (0.05-3 µM)
T3 construct: also called collagen type III vWf-related peptide

[9] = target: T1, soluble collagen type I …; assay: SPR (Biacore T100), Aegyptin over immobilized collagen type I, 25 C, two-state reaction model
[10] = target: T4, soluble collagen type III (pepsin-digested, non-fibrillar; BD Biosciences) (human, UniProt P02461 168-1196); assay: SPR (Biacore T100), Aegyptin over immobilized collagen type III, 25 C, two-state reaction model
T4 construct: domain: pepsin-digested, soluble non-fibrillar (tertiary structure, triple helical); also called collagen III
T4 sequence: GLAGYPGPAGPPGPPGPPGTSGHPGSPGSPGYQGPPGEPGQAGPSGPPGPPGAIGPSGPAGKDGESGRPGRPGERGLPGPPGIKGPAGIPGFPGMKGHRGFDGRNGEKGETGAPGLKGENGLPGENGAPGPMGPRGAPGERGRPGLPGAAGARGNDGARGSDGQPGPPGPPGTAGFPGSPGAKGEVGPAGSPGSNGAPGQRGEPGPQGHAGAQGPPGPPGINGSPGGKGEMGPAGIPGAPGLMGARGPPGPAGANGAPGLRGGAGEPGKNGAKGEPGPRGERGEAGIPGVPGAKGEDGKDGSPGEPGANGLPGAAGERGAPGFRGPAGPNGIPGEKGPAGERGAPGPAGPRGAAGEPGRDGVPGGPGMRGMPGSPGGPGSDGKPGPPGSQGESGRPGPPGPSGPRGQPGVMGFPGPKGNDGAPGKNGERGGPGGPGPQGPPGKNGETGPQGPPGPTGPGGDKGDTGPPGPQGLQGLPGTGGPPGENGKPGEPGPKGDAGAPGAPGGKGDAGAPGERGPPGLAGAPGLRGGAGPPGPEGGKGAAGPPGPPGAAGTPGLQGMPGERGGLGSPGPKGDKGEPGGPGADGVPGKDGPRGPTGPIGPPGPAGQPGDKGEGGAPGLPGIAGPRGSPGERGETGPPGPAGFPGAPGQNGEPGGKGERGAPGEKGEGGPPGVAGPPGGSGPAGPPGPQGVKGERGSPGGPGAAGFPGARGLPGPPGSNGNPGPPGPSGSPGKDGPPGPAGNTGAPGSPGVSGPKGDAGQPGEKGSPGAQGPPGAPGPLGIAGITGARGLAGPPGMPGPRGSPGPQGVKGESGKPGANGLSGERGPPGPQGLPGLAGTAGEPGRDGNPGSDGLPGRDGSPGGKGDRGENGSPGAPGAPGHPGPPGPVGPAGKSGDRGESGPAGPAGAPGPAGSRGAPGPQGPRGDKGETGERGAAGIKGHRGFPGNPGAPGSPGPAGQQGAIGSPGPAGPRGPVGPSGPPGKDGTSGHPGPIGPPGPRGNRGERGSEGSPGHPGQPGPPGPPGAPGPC

[11] = target: T1, soluble collagen type I …; assay: SPR, Aegyptin over immobilized soluble collagen type I, 180 s at 30 µl/min, two-state model; Ka1
[12] = target: T1, soluble collagen type I …; assay: SPR (Biacore T100), Aegyptin over immobilized collagen type I, 25 C, two-state reaction model; Ka1
[13] = target: T1, soluble collagen type I …; assay: SPR (Biacore T100), Aegyptin over immobilized collagen type I, 25 C, two-state reaction model; Kd1
[14] = target: T4, soluble collagen type III …; assay: SPR (Biacore T100), Aegyptin over immobilized collagen type III, 25 C, two-state reaction model; Ka1
[15] = target: T4, soluble collagen type III …; assay: SPR (Biacore T100), Aegyptin over immobilized collagen type III, 25 C, two-state reaction model; Kd1
[16] = target: B2; assay: SPR, Aegyptin injected over immobilized GPVI

T2 sequence (P02452 179-1192 limits assumed, chain 1 of 2): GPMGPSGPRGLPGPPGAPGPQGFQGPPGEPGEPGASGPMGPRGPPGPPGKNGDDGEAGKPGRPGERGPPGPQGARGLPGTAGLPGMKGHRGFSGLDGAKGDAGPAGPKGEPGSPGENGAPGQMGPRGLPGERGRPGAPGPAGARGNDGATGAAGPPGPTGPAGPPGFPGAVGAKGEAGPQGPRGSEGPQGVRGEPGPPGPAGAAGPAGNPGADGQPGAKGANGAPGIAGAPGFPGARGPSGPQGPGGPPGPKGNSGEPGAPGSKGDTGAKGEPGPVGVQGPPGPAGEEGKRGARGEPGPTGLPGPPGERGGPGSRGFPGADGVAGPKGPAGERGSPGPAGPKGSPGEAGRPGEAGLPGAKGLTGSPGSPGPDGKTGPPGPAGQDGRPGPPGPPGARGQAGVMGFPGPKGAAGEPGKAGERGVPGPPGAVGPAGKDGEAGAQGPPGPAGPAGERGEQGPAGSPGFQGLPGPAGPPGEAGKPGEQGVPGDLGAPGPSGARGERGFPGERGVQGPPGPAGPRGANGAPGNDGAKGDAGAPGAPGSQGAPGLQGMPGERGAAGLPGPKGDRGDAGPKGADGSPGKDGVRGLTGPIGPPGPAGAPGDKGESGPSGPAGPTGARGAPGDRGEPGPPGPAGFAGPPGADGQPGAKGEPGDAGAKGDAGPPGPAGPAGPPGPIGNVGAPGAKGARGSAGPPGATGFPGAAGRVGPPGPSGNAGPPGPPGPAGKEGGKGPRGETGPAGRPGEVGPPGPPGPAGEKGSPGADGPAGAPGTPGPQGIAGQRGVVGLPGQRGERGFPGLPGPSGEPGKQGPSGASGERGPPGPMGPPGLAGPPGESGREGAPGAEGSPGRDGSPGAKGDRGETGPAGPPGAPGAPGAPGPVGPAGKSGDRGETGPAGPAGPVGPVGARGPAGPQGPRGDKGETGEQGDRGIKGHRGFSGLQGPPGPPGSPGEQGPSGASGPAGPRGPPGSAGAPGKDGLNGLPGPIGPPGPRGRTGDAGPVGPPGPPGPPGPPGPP
T2 sequence (P08123 91-1104 limits assumed, chain 2 of 2): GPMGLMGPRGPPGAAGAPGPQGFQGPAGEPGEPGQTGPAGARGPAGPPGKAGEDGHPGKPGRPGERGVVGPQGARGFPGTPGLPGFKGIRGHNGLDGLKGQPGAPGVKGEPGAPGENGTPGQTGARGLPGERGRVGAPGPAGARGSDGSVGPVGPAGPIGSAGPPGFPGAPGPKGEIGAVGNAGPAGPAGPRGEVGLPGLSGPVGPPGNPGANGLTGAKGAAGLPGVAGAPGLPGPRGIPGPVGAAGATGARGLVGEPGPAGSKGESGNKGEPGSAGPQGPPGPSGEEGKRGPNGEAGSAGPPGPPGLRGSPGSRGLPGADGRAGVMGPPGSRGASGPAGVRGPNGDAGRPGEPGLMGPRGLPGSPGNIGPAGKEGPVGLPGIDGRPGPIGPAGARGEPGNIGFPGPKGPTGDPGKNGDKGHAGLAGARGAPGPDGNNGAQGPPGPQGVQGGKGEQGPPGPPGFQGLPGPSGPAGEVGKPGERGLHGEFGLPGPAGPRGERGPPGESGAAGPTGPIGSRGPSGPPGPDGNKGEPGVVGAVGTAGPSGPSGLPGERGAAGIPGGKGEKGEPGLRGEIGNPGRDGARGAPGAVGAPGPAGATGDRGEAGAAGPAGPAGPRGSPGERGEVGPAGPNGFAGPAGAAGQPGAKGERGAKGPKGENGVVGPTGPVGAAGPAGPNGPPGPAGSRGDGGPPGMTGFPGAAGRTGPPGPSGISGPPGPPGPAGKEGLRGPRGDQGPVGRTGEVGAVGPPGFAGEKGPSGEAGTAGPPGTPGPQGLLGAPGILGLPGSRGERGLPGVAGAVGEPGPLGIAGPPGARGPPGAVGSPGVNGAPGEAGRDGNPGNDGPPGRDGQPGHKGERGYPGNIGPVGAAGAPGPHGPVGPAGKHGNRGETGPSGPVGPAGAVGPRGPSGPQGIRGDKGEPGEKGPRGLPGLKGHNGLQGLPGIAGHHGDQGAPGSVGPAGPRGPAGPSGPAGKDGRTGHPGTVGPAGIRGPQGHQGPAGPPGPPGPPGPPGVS
T1 sequence (P02452 179-1192 limits assumed, chain 1 of 2): as the sequence (P02452 179-1192 limits assumed, chain 1 of 2) above
T1 sequence (P08123 91-1104 limits assumed, chain 2 of 2): as the sequence (P08123 91-1104 limits assumed, chain 2 of 2) above

B1: Aegyptin C-terminus-2 (137 aa), truncated form without GEEDA repeats (other)
chain: GGDEGEDNAEDSKGSEKNDPADTYRQVVALLDKDTKVDHIQSEYLRSALNNDLQSEVRVPVVEAIGRIGDYSKIQGCFKSMGKDVKKVISEEEKKFKSCMSKKKSEYQCSEDSFAAAKSKLSPITSKIKSCVSSKGR
notes: also called C-terminal-2; C-terminus 2 domain
Kd [1]: ~60 nM

B2
Kd [2]: 0.98 nM
Kd [3]: 3.32 nM
koff [4]: 0.0103 s⁻¹
kon [5]: 6740 M⁻¹ s⁻¹
koff [6]: 0.0188 s⁻¹
TΔS° [7]: 28 kJ/mol
ΔG° [7]: -48 kJ/mol
ΔH° [7]: -20 kJ/mol
ΔS° [7]: 95 J/(K*mol)
IC50 [8]: ~300 nM
Kd [9]: 1.22 nM
Kd [10]: 1.4 nM
kon [11]: 3.63e+08 M⁻¹ s⁻¹
kon [12]: 4.24e+06 M⁻¹ s⁻¹
koff [13]: 0.0154 s⁻¹
kon [14]: 2.49e+06 M⁻¹ s⁻¹
koff [15]: 0.00605 s⁻¹

B3: recombinant GPVI (platelet glycoprotein VI) (receptor)
chain: QSGPLPKPSLQALPSSLVPLEKPVTLRCQGPPGVDLYRLEKLSSSRYQDQAVLFIPAMKRSLAGRYRCSYQNGSLWSLPSDQLELVATGVFAKPSLSAQPGPAVSSGGDVTLQCQTRYGFDQFALYKEGDPAPYKNPERWYRASFPIITVTAAHSGTYRCYSFSSRDPYLWSAPSDPLELVVTGTSVTPSRLPTEPPSPVAEFSEATAELTVSFTNEVFTTETSRSITASPKESDSPAGPARQYYTK
binding result [16]: no binding (tested: 500 nM)
